Experimental findings from patent US20220220224A1 (Hoffmann-La Roche, published 2022) are described below.

The target in assay [1] is T1, recombinant biotinylated monomeric Fc fusion of murine Folate Receptor 1 (mu FolR1 ECD-AcTev-Fcknob-Avitag … (murine, UniProt P0DOX5 223-449 = IgG part, biotin on the C-terminal Avi tag)).
T1 construct: also called muFolR1-Fc; murine FolR1
In words: SPR Biacore, avidity set-up, antigen-Fc on SA chip. Here is the method:
(§1) The avidity of the interaction between the anti-FolR1 IgGs or T cell bispecifics and the recombinant folate receptors was determined as described below (Table 38).
(§2) Recombinant biotinylated monomeric Fc fusions of human, cynomolgus and murine Folate Receptor 1 (FolR1-Fc) were directly coupled on a SA chip using the standard coupling instruction (Biacore, Freiburg/Germany). The immobilization level was about 160. The anti-FolR1 IgGs or T cell bispecifics were passed at a concentration range from 3.7 to 900 nM with a flow of 30 μL/minutes through the flow cells over 180 seconds. The dissociation was monitored for 600 seconds. Bulk refractive index differences were corrected for by subtracting the response obtained on reference flow cell immobilized with recombinant biotinylated murine IL2 receptor Fc fusion. The binding curves resulting from the bivalent binding of the IgG or T cell bispecifics were approximated to a 1:1 Langmuir binding (even though it is a 1:2 binding) and fitted with that model to get an apparent KD representing the avidity of the bivalent binding. The apparent avidity constants for the interactions were derived from the rate constants of the fitting using the Bia Evaluation software (GE Healthcare).
(In general: Surface plasmon resonance follows binding to a sensor surface in real time, without labels.)

Assay [2] addresses T2, recombinant biotinylated monomeric Fc fusion of human Folate Receptor 1 (huFolR1 ECD-AcTev-Fcknob-Avi tag … (human, UniProt P0DOX5 223-449 = IgG part, biotin on the C-terminal Avi tag)).
T2 construct: also called huFolR1-Fc; human FolR1-Fc
As to the kind of experiment: SPR Biacore, affinity (monovalent), antibody captured via anti-Fab. Here is the method:
(§3) The affinity of the interaction between the anti-FolR1 IgGs or the T cell bispecifics and the recombinant folate receptors was determined as described below (Table 39).
(§4) For affinity measurement, direct coupling of around 10000 resonance units (RU) of the anti-human Fab specific antibody (Fab capture kit, GE Healthcare) was performed on a CM5 chip at pH 5.0 using the standard amine coupling kit (GE Healthcare). Anti-FolR1 IgGs or T cell bispecifics were captured at 20 nM with a flow rate of 10 μl/min for 40 sec, the reference flow cell was left without capture. Dilution series (12.35 to 3000 nM) of human and cyno Folate Receptor 1 Fc fusion were passed on all flow cells at 30 μl/min for 240 sec to record the association phase. The dissociation phase was monitored for 300 s and triggered by switching from the sample solution to HBS-EP. The chip surface was regenerated after every cycle using a double injection of 60 sec 10 mM Glycine-HCl pH 1.5. Bulk refractive index differences were corrected for by subtracting the response obtained on the reference flow cell 1. The affinity constants for the interactions were derived from the rate constants by fitting to a 1:1 Langmuir binding using the Bia Evaluation software (GE Healthcare).

Assay [3] has as its target T3, recombinant biotinylated monomeric Fc fusion of cynomolgus Folate Receptor 1 (cy FolR1 ECD-AcTev-Fcknob-Avi … (cynomolgus, UniProt P0DOX5 223-449 = IgG part, biotin on the C-terminal Avi tag)).
T3 construct: also called cyFolR1-Fc; cyno FolR1
The description is as above. Here is the method:
as §3, §4

Assay [4] concerns the target T2, recombinant biotinylated monomeric Fc …. As to the kind of experiment: SPR Biacore, avidity (bivalent, apparent KD), antigen-Fc on SA chip. Here is the method:
as §1, §2

Assay [5] addresses T3, recombinant biotinylated monomeric Fc …. The assay is described as above. Here is the method:
as §1, §2

B1: 16D5 D52dQ IgG (antibody, V domains shown)
VH: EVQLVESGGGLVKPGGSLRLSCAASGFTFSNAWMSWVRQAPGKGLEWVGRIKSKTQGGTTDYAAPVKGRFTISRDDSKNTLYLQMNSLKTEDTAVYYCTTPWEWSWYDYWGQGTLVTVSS
VL: QAVVTQEPSLTVSPGGTVTLTCGSSTGAVTTSNYANWVQEKPGQAFRGLIGGTNKRAPGTPARFSGSLLGGKAALTLSGAQPEDEAEYYCALWYSNLWVFGGGTKLTVL
notes: IgG
On to B1, for which the binding result in assay [1] is “no binding”. The Kd in assay [2] turned out to be 0.23 µM; in assay [3], 0.41 µM; in assay [4], 0.0092 µM; in assay [5], 0.005 µM. The koff (usually the first-order rate constant of dissociation) in assay [2] came out at 0.00162 s⁻¹; in assay [3], 0.00332 s⁻¹; in assay [4] it was 0.000775 s⁻¹; in assay [5], 0.00204 s⁻¹. The kon (as a rule, a measure of how fast the partners come together) in assay [2] turned out to be 6970 M⁻¹ s⁻¹; in assay [3], 8200 M⁻¹ s⁻¹; in assay [4], 84000 M⁻¹ s⁻¹; in assay [5] it was 412000 M⁻¹ s⁻¹.
